Measurements taken from the nanobody polyreactivity screen of Harvey et al. (2022).

Assay: yeast display, Sf9 membrane polyspecificity reagent, FACS + sequencing; frameworks hold sequencing errors
In short: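 Synthetic nanobody libraries on Saccharomyces cerevisiae BJ5465 were galactose-induced for 36–48 hours, stained 1 hour at 4 °C with 10% biotinylated, detergent-solubilized Sf9 membrane reagent and enriched on streptavidin microbeads. FACS then separated cells into low and high (top ~1%) gates by anti-HA (expression) and streptavidin (reagent binding) fluorescence. Genes were colony-PCR amplified, MiSeq 2 × 250 sequenced and CDR-length filtered. A clone's polyreactivity label is that of its gate of origin.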

Sequence	polyreactivity (PSR sort gate)
QVQLVESGGGLVQAGGSLRLSCAASGRIFPTYAMVWYRQAPGKDRELVASISWSGGRTYYADSVKGRFSISRDNAKITVFLQMNSLKPEDTAVYYCAKRTYQGEGTVKRRYDYWGQVTQVTVSS	low polyreactivity
QVQLVESGGGLVQAGGSLRLSCAASGRIFGWYAMGWYRQAPGNERELVAAINRGGSTNYADSVKGRFTISRDNAKNTVYLQMNSLKPEDTAVYYCAVRGVHYTAVTNIKYGYGYWGQGTQVTVSS	high polyreactivity
QVQLVESGGGLVQAGGSLRLSCAASGRIFRHNAMGWYRQAPGKERELVDAITSRGGTYNAHSVKGRFTISRDNAKITVFLQMTSLNPEETAVYFCNADEALYSSGNKYDYWGQGTQVSVSS	low polyreactivity
QVQLVESGGGLVHAGGSLRLSCAASGSTFYYYAMGWYRQAPGKERELVAAIRGDSTYYADSVKGRFTISRDNAKYTVYLQMYSLKTEDTAFYYCAADWYDTGFWWTYPYDYWGQGTQVTVSS	low polyreactivity
QVQLVESGGGLVQAGGSLRLSCAASGIIFDDYAMGWYRQAPGKERELVAAISVSGGSTYYADSVKGRFTISRDNAKNTVYLQMNSLKPEDTAVYYCAARLRQPYTRGNYWGQGTQVTVSS	high polyreactivity
QVQLVESGGGLVQAGGSLRLSCAATRSIFFGYAMGWYRQAPGKEREFVAAITASGVRTYYADSVKGRFTISLDNAKNTVYLQMNSLKPEDTAVYYCAARIGTGVLPGRGANSHMDYWGQGTQVTVSS	low polyreactivity
QVQLVESGGGLVQAGGSLRLSCAASGYTFKLYAMVWSRQAPGKERELVAAIRRGGTTNYADSVNGRFTISRDNSKNTVYFQMNSLKPADTAVYYCAADGWYPGFYYPYTEFDYWGQGTQVTVSS	high polyreactivity
QVQLVESGGGLVQAGASLRLSCAASGNTFDVYAMGWYREAPGKERELVAAISRRGGSTSYADSVKGRFTISRDNAKNTFYFHMNSLKPEDTAVYYCNTDPGKYTPFDYLGQGTQVTVSS	high polyreactivity
QVQLVESGGGLVQAGGSLRLSCAPSGSIFYVNAMGWYRQAPGKERELVAAITYDTGRTYYADSVKGRFTISRDNAKNTVYLQKNSLKPEDTAVYYCAVRPGYYWGYWPRFGYWGQGTQVTVSS	low polyreactivity
QVQLVESGGGLVQAGGSLRLSCAASGIFDYYVMGWYRQAPGKERELVAAISKSDGSTYYADSVKGRFTISRDNAKNTVYLQMNSLKQEDTAVYYCNAKLYYNRMDYWGQGTQVTVSS	low polyreactivity
QVQLVESGGGLVQAGGSLRLSCAASGSIFRPNAMGWYRQAPGKERELVAAITWSGDSTYYADSVKGRFTISRDNAKNTVYLQMNSLKPEDTADYYCAADFTYQGSSANDYWGQGTQVTVSS	low polyreactivity
QVQLVESGGGLVQAGGSLRLSCAASGSIFTVNTMGWYRQAPGKERELVATISKRGGRTYYADSVKGRFTISRDNAKNTVYLQMNSLKPEDTAVYYCNRVASGYPVGTSIDYGYWGQGTQVTVSS	high polyreactivity
QVQLVESGGGLVQAGGSLRLSCAASGGIFYYYAMGWYRQAPGKERQLVAGISADGGSTYYADSVKGRFTISRDNAKNTVYLQMNSLKPEDTAVYYCAADGQFDDYYSLAFDYDYWGQGTQVTVSS	high polyreactivity
QVQLVESGGGLVQAGGSLRLSCAASGSTFFKNAMGWYRQAPGKESELVAGISYGGGRTYYADSVKGRFTISRDNAKNTVYLQMKSLKPEDTAVYYCNTVTSPAPYYSYDSWGQGTQVTVSS	high polyreactivity
QVQLVESGGGLVQAGGSLRLSCAASGFTLSAYAMGLYRQAPGKERELVAGNSYTGGRTYYADSVKGRFTISRDNAKNTFYLQLISLKPEDTAVDYCAAALYSDVDAVATYGYYWGEGTQVTVSS	low polyreactivity
QVQLVESGGGLVQAGGSLRLSCAASGSTFGRYAMGWYRQAPGKERELVAAISRGTTTNYADSVKGRFTIARDNAKNTVYLQMNSLKPEDTAVYYCAADQPSKRYYSWGQGTQVTVSS	low polyreactivity
QVQLVESGGGLVQAGGSLRLSCAASGNIFAFYAMGWYRQAPGKERELVADISWSGASTYYADSVKGRFTISRDNAKNTVYLQMNSLKPEDTAVYYCAAYATYYVIFYGDEYWGQGTQVTVSS	high polyreactivity
QVQLVESGGGLVQAGGSLRLSCAASGRTFSLYAMGWYRQAPGNDRELVAAISYNGGRTYYADSVKGRFTISRDNAKNTVYLQLNCLKQDDTAVYYCAADHGDPGGYDYWGQGTQVTVSS	high polyreactivity
QVQQQESGGGLVQAGGSQRLSCAASGTSLNSLCMGWYRQAPGKRREFVASITWGTTTNYAESVKGRFTISRDNANNTVYPQMNSLKPEDTAVYYCAAPPFGDSSYHYWGQGTQVTVSS	low polyreactivity
QVQLVESGGGLVQAGGSLRLSCAASGRIFKYYGMGWYRQAPGKERELVAAITRGDSTNYADSVKGRFTISRDNAKNTVYLQMNSLKPEDTAVYYCNVGTRRGYDYWGQGTQVTVSS	high polyreactivity
QDQLVESGGGLVQAGGSLRLSFAASGRTFDRNTMGWYRQAPGKERELVAAISSSGGSTYYADSVKGRFTISRDNAKNTVYLEMNSLIPEDTAVYYCAVLSRQYFRYGYDYCGQGTQVTVSS	high polyreactivity
QVQLVESAGGLVQAGGSLRLSCAASGSIFHYYAMGWYRQAPGKERELVAAINSSGGSRTYYADSVKGRFTISRDKAKNTVYLQMNSLKPEDTAVYYCAADYRVVWRAYDYWGQGTQVTVSS	low polyreactivity
